Measured values published in patent publication US20150231232.

Molecular target: human IL-8 (UniProt P10145)
Sequence (P10145 28-99): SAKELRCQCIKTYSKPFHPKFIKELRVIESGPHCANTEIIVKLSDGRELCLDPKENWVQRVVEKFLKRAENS

SpyCEP expressed in the lumen of E. coli OMVs (OMVs containing SpyCEP)
hydrolysis of IL-8 (18% SDS-PAGE with silver staining): IL-8 was almost completely cleaved after 2 hours incubation with 30 µg OMVs containing SpyCEP
